Results published in US20230279123A1 (REGENECORE BIOTECH, published 2023).

Assays:
[1] = target: T1, IL-4Rα (on TF-1 cells) (UniProt P24394 26-825, limits assumed); assay: cell-based or functional assay
[2] = target: T2, IL-4Rα (receptor protein / antigen) (UniProt P24394 26-232, limits assumed); assay: BLI (Octet 96), antibody loaded on sensor, antigen in solution
T2 construct: also called IL-4 receptor subunit α
Procedure: (§1) Assay steps: Octet 96 and Data Acquisition software in the supporting computer were run. The bottom and sides of an acquisition probe were cleaned using a lens tissue with an appropriate amount of 75% ethanol, and the instrument was preheated for 15 min or more. Sensor pre-wetting: before the assay, the Sensor was soaked in the SD buffer for 10 min or more for later use. Then, the machine procedure was set according to: baseline→antibody→baseline→antigen binding→antigen dissociation→sensor regeneration for assay operation.

[3] = target: T1, IL-4Rα (on TF-1 cells); assay: cell-based or functional assay; remark: listed apart in the source
[4] = target: T1, IL-4Rα (on TF-1 cells); assay: cell-based or functional assay; remark: listed apart in the source
[5] = target: T1, IL-4Rα (on TF-1 cells); assay: cell-based or functional assay; remark: listed apart in the source
[6] = target: T2, IL-4Rα (receptor protein / antigen); assay: competition ELISA: IL-4Rα coated, biotin-IL-4 at EC80 mixed with antibody dilutions, OD450
Procedure: (§2) (3) A biotin-conjugated ligand protein (IL-4 or IL-5) was diluted to 2 times the EC80 concentration, and the antibody was diluted to 2 times the initial concentration, and 5-fold gradient dilution was carried out. The ligand protein, and the diluted antibody (dupilumab, 4E9V10-2B3V2, 4E9-V0 or 2B3 (SEQ ID NO. 25)) and hIgG respectively, were transferred at 1:1 into a new dispensing plate and mixed well.
(§3) (7) A stopping solution was added, and the values of samples in different wells were immediately read at the wavelength of 450 nm with a microplate reader and recorded as OD450. EC50 was calculated by plotting. 4E9-V0, non-humanized anti-[…] single domain antibody 2B3, dupilumab, reslizumab, and hIgG were used as controls, and the results are shown in Tables 6 and 7 and FIGS. 5 and 6, respectively.

[7] = target: T2, IL-4Rα (receptor protein / antigen); assay: BLI (Octet 96), antibody loaded on sensor, antigen 200 nM and 2-fold dilutions in solution
Procedure: as §1

[8] = target: T3, IL-5 (human, UniProt P05113 20-134); assay: cell-based or functional assay
[9] = target: T3, IL-5; assay: competition ELISA: IL-5R coated, biotin-IL-5 at EC80 mixed with antibody dilutions, OD450
Procedure: as §2, §3

T3 sequence (P05113 20-134 limits assumed): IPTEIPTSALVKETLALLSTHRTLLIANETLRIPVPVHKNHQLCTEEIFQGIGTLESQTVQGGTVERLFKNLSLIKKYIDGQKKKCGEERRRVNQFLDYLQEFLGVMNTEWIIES

B1: humanized anti-IL-4Rα single domain antibody 4E9-V11 (VHH)
VHH: QVQLVESGGGLVQPGGSLRLSCAASGDFYCMAWFRQAPGKEREAVAIRSGGRSTYYADSVKGRFTISRDNSKNTLYLQMNSLKAEDTAVYYCAVGVDGNCRNYWGQGTLVTVSS
Question: Which “EC50 of neutralizing IL-4-induced TF-1 proliferation” value [1] does the source give for B1 here?
Answer: Its value is 1880 µM.

B2: humanized anti-IL-4Rα single domain antibody 4E9-V7 (VHH)
VHH: QVQLVESGGGLVQPGGSLRLSCAASGDFYCMAWFRQAPGKEREAVAIRSGGRSTYLADSVKGRFTISRDNSKNTLYLQMNSLKAEDTAVYYCAVGVDGNCRNYWGQGTLVTVSS
Question: For B2, which “EC50 of neutralizing IL-4-induced TF-1 proliferation” value [1] is on record?
Answer: The value was 0.185 µM.

B3: humanized anti-IL-4Rα single domain antibody 4E9-V6 (VHH)
VHH: QVQLVESGGGLVQPGGSLRLSCAASGDFYCMAWFRQAPGKEREAVATIRSGGRSTYYADSVKGRFTISRDNSKNTLYLQMNSLKAEDTAVYYCAVGVDGNCRNYWGQGTLVTVSS
Question: Which results are given for B3?
Answer: Kd [2]: 0.00305 µM; koff [2]: 0.000506 s⁻¹; kon [2]: 166000 M⁻¹ s⁻¹; EC50 of neutralizing IL-13-induced TF-1 proliferation [3]: 0.000759 µM; EC50 of neutralizing IL-4-induced TF-1 proliferation [1]: 0.000707 µM

B4: humanized anti-IL-4Rα single domain antibody 4E9-V5 (VHH)
VHH: QVQLVESGGGLVQPGGSLRLSCAASGDFYCLGWFRQAPGQGLEAVAAIRSGGRSTYYADSVKGRFTISRDNSKNTLYLQMNSLRAEDTAVYYCAVGVDANCRNYWGQGTLVTVSS
Question: For B4, which “EC50 of neutralizing IL-4-induced TF-1 proliferation” value [1] is on record?
Answer: The value was 0.000746 µM.

B5: humanized anti-IL-4Rα single domain antibody 4E9-V9 (VHH)
VHH: QVQLVESGGGLVQPGGSLRLSCAASGDFYCMAWFRQAPGKERERVATIRSGGRSTYYADSVKGRFTISRDNSKNTLYLQMNSLKAEDTAVYYCAVGVDGNCRNYWGQGTLVTVSS
Question: For B5, which “EC50 of neutralizing IL-4-induced TF-1 proliferation” value [1] is on record?
Answer: Its value is 0.000752 µM.

B6: humanized anti-IL-4Rα single domain antibody 4E9-V2 (VHH)
VHH: QVQLVESGGGLVQPGGSLRLSCAASGDFYCLGWFRQAPGQEREAVAAIRSGGRSTYYADSVKGRFTISRDNSKNTLYLQMNSLRAEDTAVYYCAVGVDGNCRNYWGQGTLVTVSS
Question: Which “EC50 of neutralizing IL-4-induced TF-1 proliferation” value [1] does the source give for B6 here?
Answer: Its value is 0.0521 µM.

B7: humanized anti-IL-4Rα single domain antibody 4E9-V14 (VHH)
VHH: QVQLVESGGGLVQPGGSLRLSCAASGDFYCMAWFRQAPGKEREAVATIRSGGRSTYYADSVKGRFTISRDNSKNTLYLQMNSLRAEDTAVYYCAVGVDGNCRNYWGQGTLVTVSS
Question: B7 was tested. Which “EC50 of neutralizing IL-4-induced TF-1 proliferation” value [1] did it give?
Answer: The value was 18600 µM.

B8: humanized anti-IL-4Rα single domain antibody 4E9-V3 (VHH)
VHH: QVQLVESGGGLVQPGGSLRLSCAASGDFYCLGWFRQAPGQEREAVAAIRSGGRSTYYADSVKGRFTISRDNSKNTLYLQMNSLKAEDTAVYYCAVGVDGNCRNYWGQGTLVTVSS
Question: With B8 as the binder, how does the “EC50 of neutralizing IL-4-induced TF-1 proliferation” value [1] read?
Answer: The value was 0.0138 µM.

B9: humanized anti-IL-4Rα single domain antibody 4E9-V8 (VHH)
VHH: QVQLVESGGGLVQPGGSLRLSCAASGDFYCMAWFRQAPGKERERVAKIRSGGRSTYLADSVKGRFTISRDNSKNTLYLQMNSLKAEDTAVYYCAVGVDGNCRNYWGQGTLVTVSS
Question: What does the source list for B9?
Answer: EC50 of neutralizing IL-13-induced TF-1 proliferation [3]: 0.00311 µM; EC50 of neutralizing IL-4-induced TF-1 proliferation [1]: 0.00277 µM

B10: humanized anti-IL-4Rα single domain antibody 4E9-V13 (VHH)
VHH: QVQLVESGGGLVQPGGSLRLSCAASGDFYCMAWFRQAPGKEREAVATIRSGGRSTYYADSVKGRFTISRDNSKNTVYLQMNSLKAEDTAVYYCAVGVDGNCRNYWGQGTLVTVSS
Question: For B10, which Kd [2] is on record?
Answer: Its Kd is 0.00341 µM.

Question: What about the koff [2] of the same binder?
Answer: The koff was 0.000565 s⁻¹.

Question: What about the kon [2] of the same binder?
Answer: The kon was 166000 M⁻¹ s⁻¹.

Question: What about the “EC50 of neutralizing IL-13-induced TF-1 proliferation” value [3] of the same binder?
Answer: The value was 0.0042 µM.

Question: What about the “EC50 of neutralizing IL-4-induced TF-1 proliferation” value [1] of the same binder?
Answer: The value was 0.00452 µM.

B11: anti-IL-4Rα single domain antibody 4E9 (4E9-V0) (VHH)
VHH: QVQLVESGGGSVQAGGSLRLSCAASGDFYCMAWFRQAPGKEREGVATIRSGGRSTYYADSVKGRFTISKDNAKDTLYLQMNSLKPEDTAMYYCAVGVDGNCRNYWGQGTQVTVSS
notes: also called non-humanized antibody
Question: What does the source list for B11?
Answer: EC50 of neutralizing IL-13-induced TF-1 cell proliferation [4]: 0.000229 µM; EC50 of neutralizing IL-4-induced TF-1 cell proliferation [5]: 0.000281 µM; EC50 [6]: 0.00445 µM

B12: humanized anti-IL-4Rα single domain antibody 4E9-V12 (VHH)
VHH: QVQLVESGGGLVQPGGSLRLSCAASGDFYCMAWFRQAPGKEREAVATIRSGGRSTYLADSVKGRFTISRDNSKNTLYLQMNSLKAEDTAVYYCAVGVDGNCRNYWGQGTLVTVSS
Question: With B12 as the binder, how does the Kd [2] read?
Answer: The Kd was 0.0093 µM.

Question: What about the koff [2] of the same binder?
Answer: Its koff is 0.000268 s⁻¹.

Question: And the kon [2]?
Answer: Its kon is 28800 M⁻¹ s⁻¹.

Question: What about the “EC50 of neutralizing IL-13-induced TF-1 proliferation” value [3] of the same binder?
Answer: Its value is 0.00211 µM.

Question: What about the “EC50 of neutralizing IL-4-induced TF-1 proliferation” value [1] of the same binder?
Answer: Its value is 0.00203 µM.

B13: humanized anti-IL-4Rα single domain antibody 4E9-V10 (VHH)
VHH: QVQLVESGGGLVQPGGSLRLSCAASGDFYCMAWFRQAPGKEREAVAAIRSGGRSTYYADSVKGRFTISRDNSKNTLYLQMNSLKAEDTAVYYCAVGVDGNCRNYWGQGTLVTVSS
Question: How did the koff [2] turn out when B13 was run?
Answer: The koff was 0.000534 s⁻¹.

Question: And the kon [2]?
Answer: The kon was 173000 M⁻¹ s⁻¹.

Question: What about the “EC50 of neutralizing IL-13-induced TF-1 proliferation” value [3] of the same binder?
Answer: Its value is 0.00018 µM.

Question: And the Kd [7]?
Answer: The Kd was 0.00308 µM.

Question: What about the “EC50 of neutralizing IL-4-induced TF-1 proliferation” value [1] of the same binder?
Answer: Its value is 0.000271 µM.

B14: dupilumab (antibody, V domains shown)
VH: EVQLVESGGGLEQPGGSLRLSCAGSGFTFRDYAMTWVRQAPGKGLEWVSSISGSGGNTYYADSVKGRFTISRDNSKNTLYLQMNSLRAEDTAVYYCAKDRLSITIRPRYYGLDVWGQGTTVTVSS
VL: DIVMTQSPLSLPVTPGEPASISCRSSQSLLYSIGYNYLDWYLQKSGQSPQLLIYLGSNRASGVPDRFSGSGSGTDFTLKISRVEAEDVGFYYCMQALQTPYTFGQGTKLEIKR
Question: How did the EC50 [6] turn out when B14 was run?
Answer: Its EC50 is 0.00432 µM.

B15: reslizumab (antibody, V domains shown)
VH: EVQLVESGGGLVQPGGSLRLSCAVSGLSLTSNSVNWIRQAPGKGLEWVGLIWSNGDTDYNSAIKSRFTISRDTSKSTVYLQMNSLRAEDTAVYYCAREYYGYFDYWGQGTLVTVSS
VL: DIQMTQSPSSLSASVGDRVTITCLASEGISSYLAWYQQKPGKAPKLLIYGANSLQTGVPSRFSGSGSATDYTLTISSLQPEDFATYYCQQSYKFPNTFGQGTKVEVK
Question: How did the “EC50 of neutralizing IL-5-induced TF-1 cell proliferation” value [8] turn out when B15 was run?
Answer: The value was 0.000122 µM.

Question: What about the EC50 [9] of the same binder?
Answer: Its EC50 is 0.00621 µM.

B16: non-humanized anti-IL-5 single domain antibody 2B3 (VHH)
VHH: QVQLVESGGGSVQAGGSLRLSCAASGNTFSFSTYCMGWFRQSPGKEREGSLATIYDGSTAYAGSVKGRFTISVDNAKNILYLQMNNLKPEDTAMYYCAAAKYCMFWSDPSYWGQGTQVTVSS
Question: How did the “EC50 of neutralizing IL-5-induced TF-1 cell proliferation” value [8] turn out when B16 was run?
Answer: The value was 0.000336 µM.

Question: What about the EC50 [9] of the same binder?
Answer: Its EC50 is 0.00691 µM.
